Measured values taken from patent US20240082816A1.

What was measured:
[1] = target: therapeutic human IgG1 (human); assay: ITC, 15 °C, PBS pH 7.4, reported per IgG1
[2] = target: therapeutic human IgG1 (human); assay: ITC, 15 °C, PBS pH 7.4, reported per ligand
IgG [3] = assay: affinity precipitation: C12-VVEE to binding molecule 50:1, binding molecule to IgG 10:1, 1 M ammonium sulfate
IgG [4] = assay: affinity precipitation: C12-VVEE to binding molecule 50:1, binding molecule to IgG 10:2, 1 M ammonium sulfate
IgG [5] = assay: affinity precipitation: co-assembled with C12-VVEE at 10:1, binding molecule to IgG 10:1, 1 M ammonium sulfate, IgG in the supernatant by ProA column
[6] = target: therapeutic human IgG1 (human); assay: affinity precipitation: 5 mM C12-Z33 with 20 µM IgG1, 0.6 M Na2SO4, absorbance of the supernate at 280 nm

Z33 peptide showed a -TΔS° [1] of 43.4 kcal/mol, a ΔG° [1] of -10 kcal/mol and a ΔH° [1] of -53.4 kcal/mol. For the same substance, the -TΔS° [2] was 13.6 kcal/mol, the Kd [2] was 60 nM and the ΔG° [2] was -9.5 kcal/mol. For the same substance, the ΔH° [2] was -23.1 kcal/mol.
In the case of “C12-VVKKGG-Z33 binding molecule (peptide)”, the IgG precipitation yield (IgG [3]) is reported as 99%, the IgG precipitation yield (IgG [4]) is reported as 75% and the IgG precipitated out from the solution (IgG [5]) is reported as 30%.
In the case of “C12-Z33 immuno-amphiphile (self-assembled immunofibers) (peptide)”, the IgG1 removed from the supernate [6] is reported as greater than 60%.
